Results: paper PMC8379176 (Nature Communications, 2021)

Legend:
[1] = target: HA-tagged ghrelin receptor F286D (human) (UniProt Q92847)
[2] = cited from earlier work
Description: Food intake is one of the most fundamental processes required for sustaining human life.

[3] = tested on: ghrelin receptor (WT or mutants); experiment: Cell-surface expression assay (FACS); assay type: cell-based, human
Procedure: Cell-surface expression for each mutant was monitored by a fluorescence-activated cell sorting (FACS) assay. In brief, the expressed cells were incubated with mouse anti-HA-FITC antibody (Sigma) at a dilution of 1:200 for 20 min at 4 °C, and then a 9-fold excess of PBS was added to cells. […] The FACS data were analyzed by BD Accuri C6 software 1.0.264.21. The gating strategy and calculation method of expression are shown in Supplementary Fig. 11.
Supplementary Figure 11 | Gating strategy of cell surface expression assay. Circle a gate P1 in the scatter map (black circle). The cells shown in the histogram map are all the cells in the gate P1 in the scatter map. Fluorescence signal intensity (FITC) is presented by […]. With the Blank sample as the reference value of background fluorescence signal (a), the fluorescence signal histogram map is divided into two regions. The left region represents the negative cell community (FITC-), while the right region represents the positive cell community (FITC+). The expression level of cell surface wild-type (WT) ghrelin receptor (b) can be calculated as follows:
(M(FITC+)-M(FITC-))×(FITC+% Parent). M, mean fluorescence intensity. The expression level of the ghrelin receptor mutant is calculated similarly to WT receptor and then is normalized with the WT to calculate the relative expression value. […]

fold decrease in calcium response of HEK293 cells, activity of ghrelin against the WT receptor [1] [fold] | Molecule | growth hormone-releasing activity [2] | Cell-surface expression ([3]; replicate 1) [%] | Cell-surface expression ([3]; replicate 2) [%] | Cell-surface expression ([3]; replicate 3) [%] | Cell-surface expression ([3]; replicate 4) [%] | Cell-surface expression ([3]; replicate 5) [%]
> 250 | ghrelin (octanoylated at Ser3) (peptide) | – | – | – | – | – | –
– | ghrelin | potent growth hormone-releasing activity | – | – | – | – | –
– | F2796.51A (protein, SNAP tag labelled with SNAP-Lumi4-Tb; left off: SNAP, N-terminal, kept) MWNATPSEEPGFNLTLADLDWDASPGNDSLGDELLQLFPAPLLAGVTATCVALFVVGIAGNLLTMLVVSRFRELRTTTNLYLSSMAFSDLLIFLCMPLDLVRLWQYRPWNFGDLLCKLFQFVSESCTYATVLTITALSVERYFAICFPLRAKVVVTKGRVKLVIFVIWAVAFCSAGPIFVLVGVEHENGTDPWDTNECRPTEFAVRSGLLTVMVWVSSIFFFLPVFCLTVLYSLIGRKLWRRRRGDAVVGASLRDQNHKQTVKMLAVVVFAFILCWLPAHVGRYLFSKSFEPGSLEIAQISQYCNLVSFVLFYLSAAINPILYNIMSKKYRVAVFRLLGFEPFSQRKLSTLKDESSRAWTESSINT | – | 103.70 | 100.07 | 101.03 | 106.36 | 95.20
– | N3057.35A (protein, left off: SNAP, N-terminal, kept) MWNATPSEEPGFNLTLADLDWDASPGNDSLGDELLQLFPAPLLAGVTATCVALFVVGIAGNLLTMLVVSRFRELRTTTNLYLSSMAFSDLLIFLCMPLDLVRLWQYRPWNFGDLLCKLFQFVSESCTYATVLTITALSVERYFAICFPLRAKVVVTKGRVKLVIFVIWAVAFCSAGPIFVLVGVEHENGTDPWDTNECRPTEFAVRSGLLTVMVWVSSIFFFLPVFCLTVLYSLIGRKLWRRRRGDAVVGASLRDQNHKQTVKMLAVVVFAFILCWLPFHVGRYLFSKSFEPGSLEIAQISQYCALVSFVLFYLSAAINPILYNIMSKKYRVAVFRLLGFEPFSQRKLSTLKDESSRAWTESSINT | – | 83.54 | 81.81 | 86.10 | 86.24 | 88.82
– | F3097.39A (protein, SNAP tag labelled with SNAP-Lumi4-Tb; left off: SNAP, N-terminal, kept) MWNATPSEEPGFNLTLADLDWDASPGNDSLGDELLQLFPAPLLAGVTATCVALFVVGIAGNLLTMLVVSRFRELRTTTNLYLSSMAFSDLLIFLCMPLDLVRLWQYRPWNFGDLLCKLFQFVSESCTYATVLTITALSVERYFAICFPLRAKVVVTKGRVKLVIFVIWAVAFCSAGPIFVLVGVEHENGTDPWDTNECRPTEFAVRSGLLTVMVWVSSIFFFLPVFCLTVLYSLIGRKLWRRRRGDAVVGASLRDQNHKQTVKMLAVVVFAFILCWLPFHVGRYLFSKSFEPGSLEIAQISQYCNLVSAVLFYLSAAINPILYNIMSKKYRVAVFRLLGFEPFSQRKLSTLKDESSRAWTESSINT | – | 77.16 | 85.09 | 81.26 | 79.68 | 76.65
– | F3127.42A (protein, SNAP tag labelled with SNAP-Lumi4-Tb; left off: SNAP, N-terminal, kept) MWNATPSEEPGFNLTLADLDWDASPGNDSLGDELLQLFPAPLLAGVTATCVALFVVGIAGNLLTMLVVSRFRELRTTTNLYLSSMAFSDLLIFLCMPLDLVRLWQYRPWNFGDLLCKLFQFVSESCTYATVLTITALSVERYFAICFPLRAKVVVTKGRVKLVIFVIWAVAFCSAGPIFVLVGVEHENGTDPWDTNECRPTEFAVRSGLLTVMVWVSSIFFFLPVFCLTVLYSLIGRKLWRRRRGDAVVGASLRDQNHKQTVKMLAVVVFAFILCWLPFHVGRYLFSKSFEPGSLEIAQISQYCNLVSFVLAYLSAAINPILYNIMSKKYRVAVFRLLGFEPFSQRKLSTLKDESSRAWTESSINT | – | 89.96 | 82.57 | 78.32 | 82.11 | 77.05
– | R2836.55A (protein, SNAP tag labelled with SNAP-Lumi4-Tb; left off: SNAP, N-terminal, kept) MWNATPSEEPGFNLTLADLDWDASPGNDSLGDELLQLFPAPLLAGVTATCVALFVVGIAGNLLTMLVVSRFRELRTTTNLYLSSMAFSDLLIFLCMPLDLVRLWQYRPWNFGDLLCKLFQFVSESCTYATVLTITALSVERYFAICFPLRAKVVVTKGRVKLVIFVIWAVAFCSAGPIFVLVGVEHENGTDPWDTNECRPTEFAVRSGLLTVMVWVSSIFFFLPVFCLTVLYSLIGRKLWRRRRGDAVVGASLRDQNHKQTVKMLAVVVFAFILCWLPFHVGAYLFSKSFEPGSLEIAQISQYCNLVSFVLFYLSAAINPILYNIMSKKYRVAVFRLLGFEPFSQRKLSTLKDESSRAWTESSINT | – | 56.22 | 65.89 | 64.91 | 66.07 | 63.09
– | A204ECL2E (protein, UniProt Q92847 1-366, looked up, variant A204E) Growth hormone secretagogue …: MWNATPSEEPGFNLTLADLDWDASPGNDSLGDELLQLFPAPLLAGVTATCVALFVVGIAGNLLTMLVVSRFRELRTTTNLYLSSMAFSDLLIFLCMPLDLVRLWQYRPWNFGDLLCKLFQFVSESCTYATVLTITALSVERYFAICFPLRAKVVVTKGRVKLVIFVIWAVAFCSAGPIFVLVGVEHENGTDPWDTNECRPTEFEVRSGLLTVMVWVSSIFFFLPVFCLTVLYSLIGRKLWRRRRGDAVVGASLRDQNHKQTVKMLAVVVFAFILCWLPFHVGRYLFSKSFEPGSLEIAQISQYCNLVSFVLFYLSAAINPILYNIMSKKYRVAVFRLLGFEPFSQRKLSTLKDESSRAWTESSINT | – | 81.34 | 81.24 | 78.97 | 76.38 | 75.96
– | F2866.58A (protein, SNAP tag labelled with SNAP-Lumi4-Tb; left off: SNAP, N-terminal, kept) MWNATPSEEPGFNLTLADLDWDASPGNDSLGDELLQLFPAPLLAGVTATCVALFVVGIAGNLLTMLVVSRFRELRTTTNLYLSSMAFSDLLIFLCMPLDLVRLWQYRPWNFGDLLCKLFQFVSESCTYATVLTITALSVERYFAICFPLRAKVVVTKGRVKLVIFVIWAVAFCSAGPIFVLVGVEHENGTDPWDTNECRPTEFAVRSGLLTVMVWVSSIFFFLPVFCLTVLYSLIGRKLWRRRRGDAVVGASLRDQNHKQTVKMLAVVVFAFILCWLPFHVGRYLASKSFEPGSLEIAQISQYCNLVSFVLFYLSAAINPILYNIMSKKYRVAVFRLLGFEPFSQRKLSTLKDESSRAWTESSINT | – | 90.14 | 93.12 | 89.15 | 93.89 | 90.00
– | Q3027.32A (protein, SNAP tag labelled with SNAP-Lumi4-Tb; left off: SNAP, N-terminal, kept) MWNATPSEEPGFNLTLADLDWDASPGNDSLGDELLQLFPAPLLAGVTATCVALFVVGIAGNLLTMLVVSRFRELRTTTNLYLSSMAFSDLLIFLCMPLDLVRLWQYRPWNFGDLLCKLFQFVSESCTYATVLTITALSVERYFAICFPLRAKVVVTKGRVKLVIFVIWAVAFCSAGPIFVLVGVEHENGTDPWDTNECRPTEFAVRSGLLTVMVWVSSIFFFLPVFCLTVLYSLIGRKLWRRRRGDAVVGASLRDQNHKQTVKMLAVVVFAFILCWLPFHVGRYLFSKSFEPGSLEIAQISAYCNLVSFVLFYLSAAINPILYNIMSKKYRVAVFRLLGFEPFSQRKLSTLKDESSRAWTESSINT | – | 99.52 | 91.82 | 87.39 | 99.41 | 85.20
